According to patent US20200392227A1 (LYVGEN BIOPHARMA, published 2020):
Changes are numbered by the printed parent chain. Where two headings read alike, the source gives them in different places. Blank lines part the entries; values can stand above or below the binder they belong to.

Assays:
[1] = biological target: T1, human FcRIIIA-V158 protein (MednaBio, E1035) (human, UniProt P08637 17-208); experiment: BLI
T1 construct: Bought; also called FcγRIIIA(V); FcgRIIIA(V)
How it was run: (§1)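 On an Octet Red96 System, anti-penta-HIS biosensors loaded with commercial human Fc receptor proteins were dipped into test IgG diluted 1:3 over 8 points from 300 nM. Fcγ receptor runs used pH 7.2 and FcRn runs used pH 6. Global fitting of these biolayer interferometry data gave the values for Kd, kon and koff, using a 1:1 binding model.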

[2] = biological target: T2, human FcRn protein (MednaBio, E1032) (human, UniProt P55899 24-297; P61769 21-119); experiment: BLI
T2 construct: Bought; assays at pH 6
How it was run: as §1

[3] = biological target: T3, human FcRIIIB protein (MednaBio, E1037) (human, UniProt O75015 17-200); experiment: BLI
T3 construct: Bought; also called FcγRIIIB; FcgRIIIB
How it was run: as §1

[4] = biological target: T4, human FcRIIA protein (MednaBio, E1033) (human, UniProt P12318 34-218, limits assumed); experiment: BLI
T4 construct: Bought; also called FcγRIIA
T4 sequence (looked up): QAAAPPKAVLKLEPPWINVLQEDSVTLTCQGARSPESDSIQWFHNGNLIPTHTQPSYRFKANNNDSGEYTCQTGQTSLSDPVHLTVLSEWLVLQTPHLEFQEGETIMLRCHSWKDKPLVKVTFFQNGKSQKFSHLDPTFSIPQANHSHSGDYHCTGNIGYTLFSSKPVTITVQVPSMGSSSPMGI
How it was run: as §1

[5] = biological target: T5, human FcRI protein (MednaBio, E1031) (human, UniProt P12314 16-288, limits assumed); experiment: BLI
T5 construct: Bought; loaded on anti-penta-HIS biosensors; also called FcγRI
How it was run: as §1

[6] = biological target: T6, human FcRIIB/C protein (MednaBio, E1034) (human, UniProt P31994 43-217, limits assumed); experiment: BLI
T6 construct: Bought as FcRIIB/C; also called FcγRIIB; CD32B
T6 sequence (looked up): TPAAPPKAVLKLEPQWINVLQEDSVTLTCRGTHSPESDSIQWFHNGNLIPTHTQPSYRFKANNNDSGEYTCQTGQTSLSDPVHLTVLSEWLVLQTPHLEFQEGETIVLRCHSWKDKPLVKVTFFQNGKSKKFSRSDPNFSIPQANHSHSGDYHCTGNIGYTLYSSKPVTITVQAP
How it was run: as §1

[7] = biological target: T7, human FcRIIIA-F158 protein (MednaBio, E1036) (human, UniProt P08637 17-208); experiment: BLI
T7 construct: Bought; also called FcγRIIIA(F)
How it was run: as §1

[8] = biological target: T8, human FcγRIIA(R131) expressed on CHO cells (human, UniProt P12318 34-317); experiment: FACS, CHO cells expressing FcγRIIA(R131)
T8 construct: whole, on cells
T8 sequence (looked up): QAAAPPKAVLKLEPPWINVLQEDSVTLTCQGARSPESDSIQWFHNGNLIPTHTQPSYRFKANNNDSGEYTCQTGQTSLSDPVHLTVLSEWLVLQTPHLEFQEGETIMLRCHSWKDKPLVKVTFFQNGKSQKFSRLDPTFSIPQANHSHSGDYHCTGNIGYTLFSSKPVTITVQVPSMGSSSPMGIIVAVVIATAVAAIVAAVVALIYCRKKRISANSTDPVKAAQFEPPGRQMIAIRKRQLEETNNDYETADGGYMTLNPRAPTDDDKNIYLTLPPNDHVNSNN
Description: (§2) For FACS analysis of the IgG mutants' binding to different FcγRs, FcγR overexpressing CHO cells were harvested using trypsin-EDTA and were suspended in cold staining buffer (3% BSA in PBS). Test IgG mutants, which were diluted in staining buffer, were added into the cells. The mixture was incubated 4° C. for 2 hours, and then washed twice with cold staining buffer and re-suspended in PE-labeled anti-human IgG followed by incubation at 4° C. for 2 hours. The mixture was washed twice with staining buffer and re-suspended in 2% PFA in PBS for FACS.

[9] = biological target: T9, human FcγRIIC expressed on CHO cells (human, UniProt P31995 43-323); experiment: FACS, CHO cells expressing FcγRIIC
T9 construct: whole, on cells
T9 sequence (looked up): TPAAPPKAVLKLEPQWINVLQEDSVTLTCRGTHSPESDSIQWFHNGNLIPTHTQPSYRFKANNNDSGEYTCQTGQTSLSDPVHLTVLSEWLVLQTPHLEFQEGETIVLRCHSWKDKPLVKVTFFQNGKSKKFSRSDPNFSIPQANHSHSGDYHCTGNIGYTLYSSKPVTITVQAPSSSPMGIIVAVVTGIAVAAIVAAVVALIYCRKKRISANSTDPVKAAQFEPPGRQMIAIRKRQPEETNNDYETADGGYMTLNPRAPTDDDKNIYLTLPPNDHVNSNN

[10] = biological target: T10, human FcγRIIA(H131) expressed on CHO cells (human, UniProt P12318 34-317); experiment: FACS, CHO cells expressing FcγRIIA(H131)
T10 construct: whole, on cells
T10 sequence (looked up): T8 sequence (looked up) with R134H
Description: as §2

[11] = biological target: T1, human FcRIIIA-V158 protein (MednaBio, …); experiment: BLI; remark: listed apart in the source
[12] = biological target: T2, human FcRn protein (MednaBio, E1032); experiment: BLI; remark: listed apart in the source
[13] = biological target: T3, human FcRIIIB protein (MednaBio, E1037); experiment: BLI; remark: listed apart in the source
[14] = biological target: T4, human FcRIIA protein (MednaBio, E1033); experiment: BLI; remark: listed apart in the source
[15] = biological target: T5, human FcRI protein (MednaBio, E1031); experiment: BLI; remark: listed apart in the source
[16] = biological target: T6, human FcRIIB/C protein (MednaBio, E1034); experiment: BLI; remark: listed apart in the source
[17] = biological target: T7, human FcRIIIA-F158 protein (MednaBio, …); experiment: BLI; remark: listed apart in the source
[18] = biological target: T11, human FcγRI expressed on CHO cells (human, UniProt P12314 16-374); experiment: FACS, CHO cells expressing FcγRI
T11 construct: whole, on cells
How it was run: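 Trypsin-harvested CHO cells overexpressing each FcγR were incubated 2 h at 4 °C with IgG mutants in 3% BSA/PBS. Bound IgG was detected with PE-labeled anti-human IgG (2 h, 4 °C), then cells were fixed in 2% PFA and analysed by flow cytometry.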

T5 sequence (P12314 16-288 limits assumed): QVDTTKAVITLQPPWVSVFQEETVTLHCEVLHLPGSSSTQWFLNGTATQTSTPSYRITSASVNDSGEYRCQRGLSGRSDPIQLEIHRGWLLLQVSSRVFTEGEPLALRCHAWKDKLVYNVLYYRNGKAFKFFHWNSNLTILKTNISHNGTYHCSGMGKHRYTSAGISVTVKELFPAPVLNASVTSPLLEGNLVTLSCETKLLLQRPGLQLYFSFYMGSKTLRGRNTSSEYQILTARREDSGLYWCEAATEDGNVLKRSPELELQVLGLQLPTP
T7 sequence (P08637 17-208 limits assumed): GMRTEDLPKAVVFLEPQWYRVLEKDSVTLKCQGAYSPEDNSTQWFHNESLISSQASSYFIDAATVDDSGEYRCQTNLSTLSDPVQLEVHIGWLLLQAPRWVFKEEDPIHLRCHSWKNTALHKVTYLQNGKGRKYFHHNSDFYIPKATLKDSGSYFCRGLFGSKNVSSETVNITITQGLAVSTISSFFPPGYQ
T3 sequence (O75015 17-200 limits assumed): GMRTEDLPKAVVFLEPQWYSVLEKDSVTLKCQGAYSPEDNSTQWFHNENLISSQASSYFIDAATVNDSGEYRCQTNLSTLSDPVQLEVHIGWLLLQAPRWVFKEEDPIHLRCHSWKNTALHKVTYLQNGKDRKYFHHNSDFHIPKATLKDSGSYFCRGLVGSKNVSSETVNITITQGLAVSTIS
T1 sequence (P08637 17-208 F176V): as the sequence (P08637 17-208 limits assumed) above, with F160V counted along it
T11 sequence (P12314 16-374): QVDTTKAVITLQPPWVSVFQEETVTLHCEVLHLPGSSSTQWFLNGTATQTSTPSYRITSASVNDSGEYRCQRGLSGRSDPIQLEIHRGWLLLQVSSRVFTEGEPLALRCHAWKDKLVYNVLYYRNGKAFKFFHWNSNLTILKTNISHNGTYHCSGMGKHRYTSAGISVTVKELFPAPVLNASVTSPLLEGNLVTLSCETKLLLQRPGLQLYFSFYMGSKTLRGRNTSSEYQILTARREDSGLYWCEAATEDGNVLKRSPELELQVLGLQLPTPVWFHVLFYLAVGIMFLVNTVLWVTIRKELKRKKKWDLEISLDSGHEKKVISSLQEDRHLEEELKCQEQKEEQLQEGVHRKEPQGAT

- binding result [1]: no binding (tested: 300 nM)
- Kd [2]: 75 nM
- koff [2]: 0.017 s⁻¹
- kon [2]: 230000 M⁻¹ s⁻¹
- binding result [3]: no binding (tested: 300 nM)
- binding result [4]: no binding (tested: 300 nM)
- Kd [5]: 17 nM
- koff [5]: 0.0074 s⁻¹
- kon [5]: 440000 M⁻¹ s⁻¹
- Kd [6]: 140 nM
- koff [6]: 0.013 s⁻¹
- kon [6]: 94000 M⁻¹ s⁻¹
- binding result [7]: no binding (tested: 300 nM)
- binding result [8]: binds
- binding result [9]: binds
- binding result [10]: no binding (tested: 10 ug/ml)
B1: anti-CD137 IgG4 with Fc variant G4m9 (antibody)
heavy: EVQLVQSGAEVKKPGESLRISCKGSGYSFSTYWISWVRQMPGKGLEWMGKIYPGDSYTNYSPSFQGQVTISADKSISTAYLQWSSLKASDTAMYYCARGYGIFDYWGQGTLVTVSSASTKGPSVFPLAPCSRSTSESTAALGCLVKDYFPEPVTVSWNSGALTSGVHTFPAVLQSSGLYSLSSVVTVPSSSLGTKTYTCNVDHKPSNTKVDKRVESKYGPPCPPCPAPEFLGGPSVFLFPPKPKDTLMISRTPEVTCVVVDVEQEDPEVQFNWYVDGVEVHNAKTKPREEQFNSTYRVVSVLTVLHQDWLNGKEYKCKVSNKGFPSSIEKTISKAKGQPREPQVYTLPPSQEEMTKNQVSLTCLVKGFYPSDIAVEWESNGQPENNYKTTPPVLDSDGSFFLYSRLTVDKSRWQEGNVFSCSVMHEALHNHYTQKSLSLSLGK
light: SYELTQPPSVSVSPGQTASITCSGDNIGDQYAHWYQQKPGQSPVLVIYQDKNRPSGIPERFSGSNSGNTATLTISGTQAMDEADYYCATYTGFGSLAVFGGGTKLTVLGQPKAAPSVTLFPPSSEELQANKATLVCLISDFYPGAVTVAWKADSSPVKAGVETTTPSKQSNNKYAASSYLSLTPEQWKSHRSYSCQVTHEGSTVEKTVAPTECS
notes: copies: 2 + 2

- binding result [11]: no binding (tested: 300 nM)
- Kd [12]: 9.8 nM
- koff [12]: 0.013 s⁻¹
- kon [12]: 1.4e+06 M⁻¹ s⁻¹
- binding result [13]: no binding (tested: 300 nM)
- binding result [14]: no binding (tested: 300 nM)
- binding result [15]: no binding (tested: 300 nM)
- Kd [16]: 150 nM
- koff [16]: 0.046 s⁻¹
- kon [16]: 310000 M⁻¹ s⁻¹
- binding result [17]: no binding (tested: 300 nM)
- binding result [8]: no binding (tested: 10 ug/ml)
- binding result [18]: no binding (tested: 10 ug/ml)
- binding result [10]: no binding (tested: 10 ug/ml)
B2: anti-CD137 IgG4 with Fc variant G4m2 (antibody)
heavy: EVQLVQSGAEVKKPGESLRISCKGSGYSFSTYWISWVRQMPGKGLEWMGKIYPGDSYTNYSPSFQGQVTISADKSISTAYLQWSSLKASDTAMYYCARGYGIFDYWGQGTLVTVSSASTKGPSVFPLAPCSRSTSESTAALGCLVKDYFPEPVTVSWNSGALTSGVHTFPAVLQSSGLYSLSSVVTVPSSSLGTKTYTCNVDHKPSNTKVDKRVESKYGPPCPPCPAPEFLGPSVFLFPPKPKDTLMISRTPEVTCVVVDVSQEDPEVQFNWYVDGVEVHNAKTKPREEQFNSTYRVVSVLTVLHQDWLNGKEYKCKVSNKGLPSSIEKTISKAKGQPREPQVYTLPPSQEEMTKNQVSLTCLVKGFYPSDIAVEWESNGQPENNYKTTPPVLDSDGSFFLYSRLTVDKSRWQEGNVFSCSVMHEALHNHYTQKSLSLSLGK
light: B1 light
notes: copies: 2 + 2
